Test results from patent US20210340264A1.

Target: human SSTR2 (isoform A, UniProtKB P30874) (human) (UniProt P30874)
Assay: flow cytometry, BON-1 cells, same staining conditions (FIG. 10B)

Chain of human SSTR2 (P30874 whole entry, canonical isoform): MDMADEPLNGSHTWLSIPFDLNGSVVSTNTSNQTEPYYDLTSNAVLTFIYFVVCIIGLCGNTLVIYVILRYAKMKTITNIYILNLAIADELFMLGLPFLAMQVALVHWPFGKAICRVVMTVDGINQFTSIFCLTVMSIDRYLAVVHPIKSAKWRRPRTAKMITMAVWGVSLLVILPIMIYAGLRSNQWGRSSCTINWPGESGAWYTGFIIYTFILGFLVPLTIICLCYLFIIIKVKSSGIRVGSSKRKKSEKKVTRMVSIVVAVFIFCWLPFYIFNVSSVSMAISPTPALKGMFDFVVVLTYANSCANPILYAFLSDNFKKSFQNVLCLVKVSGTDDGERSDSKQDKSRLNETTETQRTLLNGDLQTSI

Question: For “commercial anti-SSTR2 mAb (R&D Systems, Catalog# MAB4224) (antibody)”, which surface binding percentage is on record?
Answer: Its surface binding percentage is 38%.
